Reference: patent US20120149881A1 (Genentech, published 2012)

T1: M1' peptide 14
T1 construct: see f1
T1 peptide: VCVEEAEGEAPWTWT

T2: M1' peptide 12
T2 construct: see f1
T2 peptide: ADWPGPPELDVCVEE

T3: M1' peptide 9
T3 construct: see f1
T3 peptide: GGSVPHPRCHCGAGR

T4: M1′ peptide 7 (human)
T4 peptide: GQQQGLPRAAGGSVP

T5: M1' peptide 13
T5 construct: see f1
T5 peptide: PPELDVCVEEAEGEA

T6: M1' peptide 1
T6 peptide: ASPSQTVQRAVSVNP

T7: M1' peptide 10
T7 construct: see f1
T7 peptide: HPRCHCGAGRADWPG

T8: M1′ peptide 8 (human)
T8 peptide: PRAAGGSVPHPRCH

T9: M1' peptide 11
T9 construct: see f1
T9 peptide: CGAGRADWPGPPELD

T10: M1' peptide 2
T10 construct: see f1
T10 peptide: TVQRAVSVNPGLAGG

T11: M1′ peptide 4 (human)
T11 peptide: SAQSQRAPDRVLCHS

T12: M1' peptide 15
T12 construct: see f1
T12 peptide: AEGEAPWTWTGLCIF

T13: M1' peptide 6
T13 construct: see f1
T13 peptide: VLCHSGQQQGLPRAA

T14: M1′ peptide 5 (human)
T14 peptide: RAPDRVLCHSGQQQG

T15: M1' peptide 3
T15 construct: see f1
T15 peptide: GLAGGSAQSQRAPDR


Assays:
[1] = target: T16, human IgE CH3-CH4-M1′/Fc fusion protein (human); assay: SPR Biacore A100, M1′ immobilized
T16 construct: also called M1′ (immobilized)

[2] = target: T17, human IgE with the M1′ sequence (long form of membrane IgE) expressed on transduced BJAB or Daudi cells (human, UniProt P01854 116-546); assay: competitive ECL binding on BJAB-IgE/M1′ cells vs biotinylated 26A11 or 47H4, 1st IC50 column
T17 construct: Full-length heavy and light chains of the U266 IgE B cell receptor, retrovirally expressed; also called IgE/M1′; IgE-M1′

[3] = target: T1, M1' peptide 14; assay: ELISA on coated antigen, relative OD450/650
Description: (§1) 15 peptides were generated spanning the sequence surrounding and including human M1′ (Clifford Quan) (FIG. 5A). Peptides were resuspended in either dH20 or 50% DMSO. […] 0.05% Tween-20, 10 ppm Proclin., 0.2% BgG, 0.25% Chaps, 5 mM EDTA, 0.35M NaCl]. […] Plates were then incubated for 2 hours at room temperature. Murine antibody plates were washed 3 times and then anti-mouse IgG1-Biotin (BD Biosciences (A85-1) #553441) was added (1:10,000, 100 μl per well) and incubated for 1 hour at RT. Following 3 washes, SA-HRP (BD Biosciences #554066) was added (1:20,000, 100 μl per well) and incubated for 1 hour. Human IgG1 antibody plates were washed as before and anti-hulgG.Fc-HRP (Jackson ImmunoResearch (#109-036-098)) was added (1:10,000, 100 μl per well) and incubated for 1 hour at RT. Once secondary incubations were complete, plates were washed 6 times and TMB substrate (BD OptEIA #555214) was added (100 μl per well). The substrate-HRP reaction was stopped with 1M H3PO4 after ˜4 minutes. Plates were then read at 450/650. Data was represented as relative OD (OD₄₅₀/CD650).

[4] = target: T2, M1' peptide 12; assay: ELISA on coated antigen, relative OD450/650
Description: as §1

[5] = target: T3, M1' peptide 9; assay: ELISA on coated antigen, relative OD450/650
Description: as §1

[6] = target: T4, M1′ peptide 7; assay: ELISA on coated antigen, relative OD450/650
Description: as §1

[7] = target: T5, M1' peptide 13; assay: ELISA on coated antigen, relative OD450/650
Description: as §1

[8] = target: T6, M1' peptide 1; assay: ELISA on coated antigen, relative OD450/650
Description: as §1

[9] = target: T7, M1' peptide 10; assay: ELISA on coated antigen, relative OD450/650
Description: as §1

[10] = target: T8, M1′ peptide 8; assay: ELISA on coated antigen, relative OD450/650
Description: as §1

[11] = target: T9, M1' peptide 11; assay: ELISA on coated antigen, relative OD450/650
Description: as §1

[12] = target: T10, M1' peptide 2; assay: ELISA on coated antigen, relative OD450/650
Description: as §1

[13] = target: T11, M1′ peptide 4; assay: ELISA on coated antigen, relative OD450/650
Description: as §1

[14] = target: T12, M1' peptide 15; assay: ELISA on coated antigen, relative OD450/650
Description: as §1

[15] = target: T13, M1' peptide 6; assay: ELISA on coated antigen, relative OD450/650
Description: as §1

[16] = target: T14, M1′ peptide 5; assay: ELISA on coated antigen, relative OD450/650
Description: as §1

[17] = target: T15, M1' peptide 3; assay: ELISA on coated antigen, relative OD450/650
Description: as §1

[18] = target: T16, human IgE CH3-CH4-M1′/Fc fusion protein; assay: SPR Biacore 2000, IgG immobilized, M1′-Fc analyte
[19] = target: T17, human IgE with the M1′ sequence (long …); assay: Scatchard analysis on cells expressing human IgE/M1′
Description: The BJAB or Daudi cells expressing various forms of IgE with or without M1′ (Human, Rhesus, Cyno) were prepared for binding in cold Binding buffer composed of base media, with 10 mM HEPES pH 7.4, and 2% FBS as well as 40 ug/ml human IgG. Cells are diluted to concentration of 1.7×10⁶ cells/ml, and kept on ice until they are added to the assay. The proteins/antibodies are iodinated with the Iodogen method. Various concentrations of cold protein are prepared in triplicate, using a 1:2 dilution starting with the saturation concentration and ending at a concentration of zero, with a total of 14 concentrations. Hot protein of a single concentration is added to all dilutions compete with the cold protein. Lastly the cells are added to the hot and cold protein mixture, 250,000 cells per sample were used. Assay is kept at 4° C. for 4 hours, shaking. Each sample is then collected and filtered on membrane, washed at least 3 times with binding buffer, allowed to dry and then counted for 1 minute using Perkin Elmer Wizard 1470 Auto Gamma Counter.

[20] = target: T17, human IgE with the M1′ sequence (long …); assay: competitive ECL binding on BJAB-IgE/M1′ cells vs biotinylated 26A11 or 47H4, 2nd IC50 column
[21] = target: T17, human IgE with the M1′ sequence (long …); assay: Scatchard, iodinated antibody on IgE/M1′ cells

T16 sequence (chain, as listed by the source limits assumed): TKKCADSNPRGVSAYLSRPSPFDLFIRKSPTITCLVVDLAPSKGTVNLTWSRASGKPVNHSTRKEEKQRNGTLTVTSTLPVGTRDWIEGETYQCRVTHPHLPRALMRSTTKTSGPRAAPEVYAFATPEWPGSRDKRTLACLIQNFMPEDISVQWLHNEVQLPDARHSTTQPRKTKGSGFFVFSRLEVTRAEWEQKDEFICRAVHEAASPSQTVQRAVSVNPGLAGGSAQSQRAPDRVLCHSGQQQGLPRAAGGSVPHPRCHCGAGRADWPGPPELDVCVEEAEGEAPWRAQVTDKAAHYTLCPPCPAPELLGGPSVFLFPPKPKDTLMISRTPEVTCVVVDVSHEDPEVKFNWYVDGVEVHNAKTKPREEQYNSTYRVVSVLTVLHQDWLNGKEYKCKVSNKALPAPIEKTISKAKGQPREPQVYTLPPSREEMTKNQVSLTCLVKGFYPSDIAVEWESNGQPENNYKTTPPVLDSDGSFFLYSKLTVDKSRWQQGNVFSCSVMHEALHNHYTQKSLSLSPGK
T17 sequence (P01854 116-546 I515L limits assumed): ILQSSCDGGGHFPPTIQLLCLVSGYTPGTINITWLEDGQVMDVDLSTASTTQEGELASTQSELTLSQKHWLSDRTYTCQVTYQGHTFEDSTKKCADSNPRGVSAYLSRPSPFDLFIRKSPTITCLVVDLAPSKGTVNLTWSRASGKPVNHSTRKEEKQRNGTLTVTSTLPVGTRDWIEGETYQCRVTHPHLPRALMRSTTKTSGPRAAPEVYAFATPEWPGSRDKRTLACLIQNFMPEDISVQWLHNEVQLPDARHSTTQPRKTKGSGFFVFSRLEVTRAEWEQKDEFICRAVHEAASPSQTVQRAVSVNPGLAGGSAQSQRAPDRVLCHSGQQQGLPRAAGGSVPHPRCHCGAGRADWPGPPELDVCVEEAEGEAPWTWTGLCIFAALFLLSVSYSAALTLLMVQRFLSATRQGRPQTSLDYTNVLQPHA

Row | Kd [1] | IC50 [2] | binding result [3] | binding result [4] | binding result [5] | binding result [6] | binding result [7] | binding result [8] | binding result [9] | binding result [10] | binding result [11] | binding result [12] | binding result [13] | binding result [14] | binding result [15] | binding result [16] | binding result [17] | Kd [19] | Binder | also measured
1 | 15 nM | 39 nM | no binding | no binding | no binding | no binding | no binding | no binding | no binding | no binding | no binding | no binding | binds | no binding | no binding | binds | no binding |  | humanized anti-IgE/M1′ antibody 7A6.v1 (antibody, V domains shown, direct CDR graft, huIgG1; also called 7A6v1 huIgG1; 7A67v1 [sic]) VH: EVQLVESGGGLVQPGGSLRLSCAASGYTFIDYEMHWVRQAPGKGLEWVGAIDPETGTTAYNQKFKGRFTISADTSKNTAYLQMNSLRAEDTAVYYCTRLRPHYDYDNAMDSWGQGTLVTVSS VL: DIQMTQSPSSLSASVGDRVTITCKSSQTLLYSTNQKNYLAWYQQKPGKAPKLLIYWASTRESGVPSRFSGSGSGTDFTLTISSLQPEDFATYYCQQYYSYPYTFGQGTKVEIKR | 
2 | 2.6 nM | 11 nM | no binding | no binding | no binding | binds | no binding | no binding | no binding | binds | no binding | no binding | no binding | no binding | no binding | no binding | no binding | 1.85 nM | humanized anti-IgE/M1′ antibody 26A11.v6 (antibody, V domains shown, huIgG1; also called 26A11v6 huIgG1) VH: EVQLVESGGGLVQPGGSLRLSCAASGYTFTDYYIMWVRQAPGKGLEWVGDINPNNYDTSYNQKFKGRFTISADTSKNTAYLQMNSLRAEDTAVYYCASKAYWGQGTLVTVSS VL: DIQMTQSPSSLSASVGDRVTITCRSSQDISNYLNWYQQKPGKAPKLLIYSTSRLHSGVPSRFSGSGSGTDFTLTISSLQPEDFATYYCQQGHTLPWTFGQGTKVEIKR | Kd [18]: 8.3 nM; IC50 [20]: 23 nM
3 | 4.5 nM | 52 nM |  |  |  |  |  |  |  |  |  |  | binds |  |  | binds |  | 0.64 nM | murine anti-IgE/M1′ antibody 7A6 (antibody, V domains shown, mIgG1 hybridoma antibody; also called mu7A6; 7A6 mIgG1) VH: QVQLQQSGAELVRPGASVTLSCKASGYTFIDYEMHWVKQTPVHGLEWIGAIDPETGTTAYNQKFKGKATLTAAKSSSTAYMELRSLTSEDSAVYYCTRLRPHYDYDNAMDSWGQGTTLTVSS VL: DIVMSQSPSSLTVSVGEKVTLSCKSSQTLLYSTNQKNYLAWYQQKPGQSPKLLIYWASTRESGVPDRFTGSGSGTDFTLTISSVKAEDLAVYYCQQYYSYPYTFGGGTKVEIKR | Kd [21]: 0.6 nM
